{"source": "patent US20250179172A1", "key": {"[1]": {"target": "human CD5 (Arg25-Pro372)-His protein (Acro, Cat. No. CD5-H52H5) (human) (UniProt P06127)", "test": "ELISA on hCD5-His, antibody 100 nM"}, "[2]": {"target": "human CD5 (Arg25-Pro372)-His protein (Acro, Cat. No. CD5-H52H5) (human) (UniProt P06127)", "test": "ELISA on hCD5-His, antibody 0.001 nM"}, "[3]": {"target": "murine CD5-His (Sino Biologicals, Cat. No. 50403-M08H) (murine) (UniProt P13379)", "sequence (P13379 24-371 limits assumed, stated change not applied)": "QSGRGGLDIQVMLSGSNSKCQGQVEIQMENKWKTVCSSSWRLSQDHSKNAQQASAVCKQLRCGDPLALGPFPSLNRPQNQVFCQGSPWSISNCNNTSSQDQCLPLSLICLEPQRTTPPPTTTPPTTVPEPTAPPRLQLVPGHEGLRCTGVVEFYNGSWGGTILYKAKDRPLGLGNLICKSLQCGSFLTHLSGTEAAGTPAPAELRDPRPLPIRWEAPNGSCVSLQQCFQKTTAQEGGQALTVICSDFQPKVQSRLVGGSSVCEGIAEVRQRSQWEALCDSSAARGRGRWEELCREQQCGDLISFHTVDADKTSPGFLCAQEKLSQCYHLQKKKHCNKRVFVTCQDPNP", "test": "ELISA on murine CD5-His, antibody 10.00 nM"}, "[4]": {"target": "human CD5 (Arg25-Pro372)-His protein (Acro, Cat. No. CD5-H52H5) (human) (UniProt P06127)", "test": "ELISA on hCD5-His, antibody 0.1 nM"}, "[5]": {"target": "human CD5 (Arg25-Pro372)-His protein (Acro, Cat. No. CD5-H52H5) (human) (UniProt P06127)", "test": "ELISA on hCD5-His, antibody 1 nM"}, "[6]": {"target": "human CD5, full length, on cells (Jurkat, endogenous; CHO-K1-human CD5, transfected) (human) (UniProt P06127)", "test": "FACS on CHO-K1-hCD5-2E2 cells"}, "[7]": {"target": "human CD5 (Arg25-Pro372)-His protein (Acro, Cat. No. CD5-H52H5) (human) (UniProt P06127)", "test": "ELISA on hCD5-His, antibody 0.0001 nM"}, "[8]": {"target": "murine CD5-His (Sino Biologicals, Cat. No. 50403-M08H) (murine) (UniProt P13379)", "test": "ELISA on murine CD5-His, antibody '0.000' nM as printed"}, "[9]": {"target": "human CD5, full length, on cells (Jurkat, endogenous; CHO-K1-human CD5, transfected) (human) (UniProt P06127)", "test": "FACS on Jurkat cells"}, "[10]": {"target": "human CD5, full length, on cells (Jurkat, endogenous; CHO-K1-human CD5, transfected) (human) (UniProt P06127)", "test": "FACS on CHO-K1-human CD5 cells"}, "[11]": {"target": "murine CD5-His (Sino Biologicals, Cat. No. 50403-M08H) (murine) (UniProt P13379)", "test": "ELISA on murine CD5-His, antibody 100.00 nM"}, "[12]": {"target": "human CD5 (Arg25-Pro372)-His protein (Acro, Cat. No. CD5-H52H5) (human) (UniProt P06127)", "test": "ELISA on hCD5-His, antibody 0.01 nM"}, "[13]": {"target": "monkey CD5, full length, on HEK293T cells (monkey)", "sequence (chain, as listed by the source limits assumed)": "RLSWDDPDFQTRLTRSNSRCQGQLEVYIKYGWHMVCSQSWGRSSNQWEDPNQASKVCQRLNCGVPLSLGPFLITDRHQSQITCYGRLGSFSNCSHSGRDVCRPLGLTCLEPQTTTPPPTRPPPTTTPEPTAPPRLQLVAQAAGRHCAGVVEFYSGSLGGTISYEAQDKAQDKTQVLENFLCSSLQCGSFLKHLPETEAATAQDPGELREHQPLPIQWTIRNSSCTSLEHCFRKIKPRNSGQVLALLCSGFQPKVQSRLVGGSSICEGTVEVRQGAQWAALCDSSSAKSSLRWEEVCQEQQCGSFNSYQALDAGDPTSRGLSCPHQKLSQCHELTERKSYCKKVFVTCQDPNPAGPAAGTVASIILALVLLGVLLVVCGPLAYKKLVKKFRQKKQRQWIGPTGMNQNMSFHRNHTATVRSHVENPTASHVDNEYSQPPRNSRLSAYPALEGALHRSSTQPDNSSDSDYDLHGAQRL", "test": "FACS on HEK293T-monkey CD5 cells"}, "[14]": {"target": "murine CD5-His (Sino Biologicals, Cat. No. 50403-M08H) (murine) (UniProt P13379)", "test": "ELISA on murine CD5-His, antibody 0.01 nM"}, "[15]": {"target": "human CD5, full length, on cells (Jurkat, endogenous; CHO-K1-human CD5, transfected) (human) (UniProt P06127)", "test": "FACS on CHO-K1-hCD5-2B2 cells"}, "[16]": {"target": "human CD5, full length, on cells (Jurkat, endogenous; CHO-K1-human CD5, transfected) (human) (UniProt P06127)", "test": "FACS on CHO-K1-hCD5-2C6 cells"}, "[17]": {"target": "murine CD5-His (Sino Biologicals, Cat. No. 50403-M08H) (murine) (UniProt P13379)", "test": "ELISA on murine CD5-His, antibody 0.001 nM"}, "[18]": {"target": "human CD5, full length, on cells (Jurkat, endogenous; CHO-K1-human CD5, transfected) (human) (UniProt P06127)", "test": "FACS on CHO-K1-hCD5-2F8 cells"}, "[19]": {"target": "murine CD5-His (Sino Biologicals, Cat. No. 50403-M08H) (murine) (UniProt P13379)", "test": "ELISA on murine CD5-His, antibody 1.00 nM"}, "[20]": {"target": "murine CD5-His (Sino Biologicals, Cat. No. 50403-M08H) (murine) (UniProt P13379)", "test": "ELISA on murine CD5-His, antibody 0.10 nM"}, "[21]": {"target": "human CD5 (Arg25-Pro372)-His protein (Acro, Cat. No. CD5-H52H5) (human) (UniProt P06127)", "test": "ELISA on hCD5-His, antibody 10 nM"}}, "data": [{"substance": "Anti-HEL-hIgG1 (antibody against hen egg lysozyme, Biointron Cat. No. B117901)", "values": [{"measurement": "OD450", "setting": "[1]", "value": 0.06, "unit": "OD450"}, {"measurement": "OD450", "setting": "[2]", "value": 0.05, "unit": "OD450"}, {"measurement": "OD450", "setting": "[3]", "value": 0.12, "unit": "OD450"}, {"measurement": "OD450", "setting": "[4]", "value": 0.05, "unit": "OD450"}, {"measurement": "OD450", "setting": "[5]", "value": 0.05, "unit": "OD450"}, {"measurement": "Mean fluorescence intensity of cells", "setting": "[6]", "value": 65.9, "unit": "MFI"}, {"measurement": "OD450", "setting": "[7]", "value": 0.05, "unit": "OD450"}, {"measurement": "OD450", "setting": "[8]", "value": 0.11, "unit": "OD450"}, {"measurement": "Max MFI", "setting": "[9]", "value": 62, "unit": "MFI"}, {"measurement": "Mean fluorescence intensity of cells", "setting": "[9]", "value": 97, "unit": "MFI"}, {"measurement": "Max MFI", "setting": "[10]", "value": 93, "unit": "MFI"}, {"measurement": "OD450", "setting": "[11]", "value": 0.12, "unit": "OD450"}, {"measurement": "OD450", "setting": "[12]", "value": 0.05, "unit": "OD450"}, {"measurement": "Max MFI", "setting": "[13]", "value": 79, "unit": "MFI"}, {"measurement": "OD450", "setting": "[14]", "value": 0.11, "unit": "OD450"}, {"measurement": "Mean fluorescence intensity of cells", "setting": "[15]", "value": 65.9, "unit": "MFI"}, {"measurement": "Mean fluorescence intensity of cells", "setting": "[16]", "value": 65.9, "unit": "MFI"}, {"measurement": "OD450", "setting": "[17]", "value": 0.11, "unit": "OD450"}, {"measurement": "Mean fluorescence intensity of cells", "setting": "[18]", "value": 65.9, "unit": "MFI"}, {"measurement": "OD450", "setting": "[19]", "value": 0.11, "unit": "OD450"}, {"measurement": "OD450", "setting": "[20]", "value": 0.11, "unit": "OD450"}, {"measurement": "OD450", "setting": "[21]", "value": 0.05, "unit": "OD450"}]}]}
